{"source": "patent CN115925884A", "about": "(SUN YAT SEN UNIV CANCER CENTER SUN YAT SEN UNIV AFFILIATED …, dated 2023)", "target": "T1, EBV gB重组蛋白 (recombinant EB virus gB protein with C-terminal 6xHis tag) (EB病毒 (Epstein-Barr virus), UniProt P0C762 23-683, biotin label in the BLI assay (gB-Biotin), site not stated)", "T1 construct": "Biotinylated for BLI; unlabelled in the Western blot; also called gB蛋白; gB抗原", "T1 chain": "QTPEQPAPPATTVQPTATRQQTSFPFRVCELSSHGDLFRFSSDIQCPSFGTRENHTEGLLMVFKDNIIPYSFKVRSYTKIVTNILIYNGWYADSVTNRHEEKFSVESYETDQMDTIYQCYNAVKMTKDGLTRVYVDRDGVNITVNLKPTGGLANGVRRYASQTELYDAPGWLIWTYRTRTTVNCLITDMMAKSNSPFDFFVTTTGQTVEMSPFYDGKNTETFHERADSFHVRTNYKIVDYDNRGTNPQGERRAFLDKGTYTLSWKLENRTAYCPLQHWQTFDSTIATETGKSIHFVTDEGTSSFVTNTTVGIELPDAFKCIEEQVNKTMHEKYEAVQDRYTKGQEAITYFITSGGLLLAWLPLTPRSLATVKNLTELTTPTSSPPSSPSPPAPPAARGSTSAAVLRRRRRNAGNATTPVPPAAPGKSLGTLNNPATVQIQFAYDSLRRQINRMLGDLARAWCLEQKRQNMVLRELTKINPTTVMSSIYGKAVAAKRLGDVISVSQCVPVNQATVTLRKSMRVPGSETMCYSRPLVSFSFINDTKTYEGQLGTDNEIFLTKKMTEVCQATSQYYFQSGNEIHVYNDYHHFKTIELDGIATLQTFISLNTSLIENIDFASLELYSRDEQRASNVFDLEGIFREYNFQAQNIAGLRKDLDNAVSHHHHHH", "assay": "BLI, biotinylated gB on SA biosensor, 0-200 nM antibody in solution", "data": [{"binder": "4F10抗体 (monoclonal antibody against EB virus gB antigen) (antibody, V domains shown, For flow cytometry the antibody carried a '403' fluorescent label; also called 抗体4F10) VH: QITLKESGAEMKKPGSSVKVSCKSSDTFKSYGIGWVRQAPGQGLEWMGGVIPVTGTRSYPQKFQGRVTITADESTSTAYMELSRLRSEDTAVYYCGRYMSYLYGMDVWGQGTTVTVSS VL: DIVLTQTPLSSPVTLGQPASISCRSSQGLVYSDGDTYLNWFQQRPGQSPRRLIYKVSNRDSGVPDRFSGSGSGTDFTLRISRVEAEDVGVYYCMQGAHWPPTFGQGTKLEIK", "values": [{"measurement": "Kd", "value": 1, "unit": "pM"}]}]}
